The text below walks through data of PMC5501727, “The Structure of the R2TP Complex Defines a Platform for Recruiting Diverse Client Proteins to the HSP90 Molecular Chaperone System” (Structure(London, England:1993), 2017).

One assay concerns the target T1, Tah1p-Pih1p complex (yeast, UniProt P25638 1-111; P38768 1-344).
T1 construct: Tah1p, TPR domain protein of yeast R2TP; gene cloned into a modified pET28b (NdeI/BamHI) giving 2xStrep-tagged Tah1p; Pih1p of yeast R2TP; PIH1P gene cloned into p3E (modified pGEX6p) with NdeI and HindIII; Heterodimer of 53 kDa by sedimentation velocity; also called TP; 2xStrep-Tah1p-Pih1p
T1 sequence (looked up) 1: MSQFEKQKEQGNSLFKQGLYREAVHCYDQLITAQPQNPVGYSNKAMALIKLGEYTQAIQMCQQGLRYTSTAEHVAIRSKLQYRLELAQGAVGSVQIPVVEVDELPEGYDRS
T1 sequence (looked up) 2: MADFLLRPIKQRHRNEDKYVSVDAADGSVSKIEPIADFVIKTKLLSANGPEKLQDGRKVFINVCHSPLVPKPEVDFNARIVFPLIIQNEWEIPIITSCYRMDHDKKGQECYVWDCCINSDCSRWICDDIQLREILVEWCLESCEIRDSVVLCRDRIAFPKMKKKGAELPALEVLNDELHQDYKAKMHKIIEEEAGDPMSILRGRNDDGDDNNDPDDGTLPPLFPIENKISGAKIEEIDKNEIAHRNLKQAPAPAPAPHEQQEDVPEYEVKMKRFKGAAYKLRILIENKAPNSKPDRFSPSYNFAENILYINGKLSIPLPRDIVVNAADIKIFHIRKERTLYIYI
Kind of assay: AUC; sedimentation velocity, 43,000 rpm, samples 2 to 4 μM in 20 mM HEPES pH 7.8, 140 mM NaCl, 5 mM MgCl2, 0.5 mM EDTA, 0.5 mM TCEP; TP alone, R2 alone, and R2 mixed with TP at 1:2.4 molar ratio. The conditions noted are these: both partners purified.

In another assay the target is T2, Rvb2p (Saccharomyces cerevisiae, UniProt Q12464 1-471).
T2 construct: gene (Genscript) cloned into a modified pRSETA (containing 3X Myc-tags) with NheI and HindIII; also called Rvb2p-only complex; source: Rosetta (DE3) pLysS, co-expressed with Rvb1p, purified (Talon, gel filtration)
The description is as above. The conditions noted are these: both partners purified.

B1: Rvb1p-Rvb2p complex (hetero-hexamer) (complex, Saccharomyces cerevisiae)
chain 1: MVAISEVKENPGVNSSNSGAVTRTAAHTHIKGLGLDESGVAKRVEGGFVGQIEAREACGVIVDLIKAKKMSGRAILLAGGPSTGKTALALAISQELGPKVPFCPLVGSELYSVEVKKTETLMENFRRAIGLRIKETKEVYEGEVTELTPEDAENPLGGYGKTISHVIVGLKSAKGTKTLRLDPTIYESIQREKVSIGDVIYIEANTGAVKRVGRSDAYATEFDLETEEYVPLPKGEVHKKKEIVQDVTLHDLDVANARPQGGQDVISMMGQLLKPKKTEITEKLRQEVNKVVAKYIDQGVAELIPGVLFIDEVNMLDIEIFTYLNKALESNIAPVVVLASNRGMTTVRGTEDVISPHGVPPDLIDRLLIVRTLPYDKDEIRTIIERRATVERLQVESSALDLLATMGTETSLRYALQLLAPCGILAQTSNRKEIVVNDVNEAKLLFLDAKRSTKILETSANYL
chain 2: MSIQTSDPNETSDLKSLSLIAAHSHITGLGLDENLQPRPTSEGMVGQLQARRAAGVILKMVQNGTIAGRAVLVAGPPSTGKTALAMGVSQSLGKDVPFTAIAGSEIFSLELSKTEALTQAFRKSIGIKIKEETELIEGEVVEIQIDRSITGGHKQGKLTIKTTDMETIYELGNKMIDGLTKEKVLAGDVISIDKASGKITKLGRSFARSRDYDAMGADTRFVQCPEGELQKRKTVVHTVSLHEIDVINSRTQGFLALFTGDTGEIRSEVRDQINTKVAEWKEEGKAEIVPGVLFIDEVHMLDIECFSFINRALEDEFAPIVMMATNRGVSKTRGTNYKSPHGLPLDLLDRSIIITTKSYNEQEIKTILSIRAQEEEVELSSDALDLLTKTGVETSLRYSSNLISVAQQIAMKRKNNTVEVEDVKRAYLLFLDSARSVKYVQENESQYIDDQGNVQISIAKSADPDAMDTTE
notes: Rvb1p, AAA+ ATPase of yeast R2TP; gene (Genscript) cloned into pET28b with NdeI and BamHI; gene (Genscript) cloned into a modified pRSETA (containing 3X Myc-tags) with NheI and HindIII; also called R2; Rvb1p-Rvb2p hexamer; copies: 3 + 3
As to B1, the “stoichiometry N” value with Tah1p-Pih1p complex is 1 Rvb1p-Rvb2p hetero-hexamer per Tah1p-Pih1p complex.

B2: Rvb1p (natural protein, Saccharomyces cerevisiae, UniProt Q03940 1-463, looked up)
chain: B1 chain 1
notes: Rvb1p, AAA+ ATPase of yeast R2TP; gene (Genscript) cloned into pET28b with NdeI and BamHI; also called Rvb1p-only complex
On to B2, for which, in the assay with Rvb2p, the “stoichiometry N” value is 1 Rvb1p per Rvb2p (3:3).
